Data reported in article PMC9063202 (2022).

Legend:
[1] = biological target: T1, IRISIN protein (human recombinant IRISIN) (human, UniProt Q8NAU1 1-191); assay: BLI
T1 chain: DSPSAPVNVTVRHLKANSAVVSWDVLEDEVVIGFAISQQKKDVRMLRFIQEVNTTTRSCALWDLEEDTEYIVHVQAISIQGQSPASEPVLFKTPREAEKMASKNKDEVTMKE

[2] = biological target: T1, IRISIN protein (human recombinant …); assay: BLI

B1: TRPC3 protein (provided by Chen Lei Laboratory, Peking University) (natural protein)
chain: MEGSPSLRRMTVMREKGRRQAVRGPAFMFNDRGTSLTAEEERFLDAAEYGNIPVVRKMLEESKTLNVNCVDYMGQNALQLAVGNEHLEVTELLLKKENLARIGDALLLAISKGYVRIVEAILNHPGFAASKRLTLSPCEQELQDDDFYAYDEDGTRFSPDITPIILAAHCQKYEVVHMLLMKGARIERPHDYFCKCGDCMEKQRHDSFSHSRSRINAYKGLASPAYLSLSSEDPVLTALELSNELAKLANIEKEFKNDYRKLSMQCKDFVVGVLDLCRDSEEVEAILNGDLESAEPLEVHRHKASLSRVKLAIKYEVKKFVAHPNCQQQLLTIWYENLSGLREQTIAIKCLVVLVVALGLPFLAIGYWIAPCSRLGKILRSPFMKFVAHAASFIIFLGLLVFNASDRFEGITTLPNITVTDYPKQIFRVKTTQFTWTEMLIMVWVLGMMWSECKELWLEGPREYILQLWNVLDFGMLSIFIAAFTARFLAFLQATKAQQYVDSYVQESDLSEVTLPPEIQYFTYARDKWLPSDPQIISEGLYAIAVVLSFSRIAYILPANESFGPLQISLGRTVKDIFKFMVLFIMVFFAFMIGMFILYSYYLGAKVNAAFTTVEESFKTLFWSIFGLSEVTSVVLKYDHKFIENIGYVLYGIYNVTMVVVLLNMLIAMINSSYQEIEDDSDVEWKFARSKLWLSYFDDGKTLPPPFSLVPSPKSFVYFIMRIVNFPKCRRRRLQKDIEMGMGNSKSRLNLFTQSNSRVFESHSFNSILNQPTRYQQIMKRLIKRYVLKAQVDKENDEVNEGELKEIKQDISSLRYELLEDKSQATEELAILIHKLSEKLNPSMLRCE
koff [1]: 0.00384 s⁻¹
Kd [2]: 32.2 nM
